Measurements from article PMC10174534.

Molecular target: SARS-CoV-2 ΔN135 spike (S) protein, soluble prefusion-stabilised ectodomain trimer (SARS-CoV-2) (UniProt P0DTC2)
Experiment: SEC-MALS

“SARS-CoV-2 ΔN135 spike (S) protein, soluble prefusion-stabilised ectodomain trimer (from UniProt P0DTC2 22-1208) (natural protein)” gave a stoichiometry N of 3.
